Experimental findings from patent US12371725 are described below.

The test system of this series is Cre recombinase (Bacteriophage P1?). The series is described as follows: cleavage_in_vitro. The settings on record: 73 nM Cre, 37 C, 30 min; approximate value; ethidium bromide inhibits.

Regarding “pLoxFL BamHI digest (linear, two loxP sites)”, the activity (% recombination) turned out to be 74.
